Our source for the Kd and yeast surface expression values is the FLAb antibody collection (doi:10.7554/elife.23156).

Where only a bound is given, the exact number is not on record here.

To fix the notation:
B1: scFv; the commonest letter at each place (parent)
chain 1: EVKLDETGGGLVQPGRPMKLSCVASGFTFSDYWMNWVRQSPEKGLEWVAQIRNKPYNYETYYSDSVKGRFTISRDDSKSSVYLQMNNLRVEDMGIYYCTGSYYGMDYWGQGTSVTVS
chain 2: DVVMTQTPLSLPVSLGDQASISCRSSQSLVHSNGNTYLRWYLQKPGQSPKVLIYKVSNRFSGVPDRFSGSGSGTDFTLKISRVEAEDLGVYFCSQSTHVPWTFGGGTKLEIK

Data set [1] covers variants of B1. The data set is described as follows: Kd (Tite-Seq). Conditions: with fluorescein; format: scFv 4-4-20, heavy + light.
In data set [2] the parent is B1. Briefly: yeast surface expression (ratio to wild type); higher = more expressed. Conditions: format: scFv 4-4-20, heavy + light.

As a reminder, the Kd is the equilibrium constant for the complex coming apart. As to chain 1 W33D M34W, the Kd in data set [1] is at least 10 µM. In data set [2], the yeast surface expression is 1.03.

Turning to chain 1 W33M M34H N35K, the Kd in data set [1] is at least 10 µM. Also, in data set [2], the yeast surface expression was determined as 0.305.

With chain 1 T28V W33G, the Kd in data set [1] is at least 10 µM. Moreover, in data set [2], the yeast surface expression was 0.759.

With chain 1 T28V Y32R, the Kd in data set [1] was 0.0245 µM. Moreover, the yeast surface expression in data set [2] amounted to 0.717.

As for chain 1 T28V Y32N, in data set [1], the Kd was at least 10 µM. In addition, the yeast surface expression in data set [2] was 0.765.

On to chain 1 W36M V37W, for which the Kd in data set [1] was at least 10 µM. Also, the yeast surface expression in data set [2] came to 0.496.

Take chain 1 W36M V37P: the Kd in data set [1] is at least 10 µM. Further, the yeast surface expression in data set [2] came to 0.36.

With chain 1 W36M V37S, the dissociation constant Kd in data set [1] was at least 10 µM. The yeast surface expression in data set [2] was found to be 0.415.

For the variant chain 1 W33P M34H, the Kd in data set [1] is at least 10 µM. For the same variant, in data set [2], the yeast surface expression turned out to be 0.508.

Turning to chain 1 T28V, in data set [1], the dissociation constant Kd came to 0.00128 µM. Further, the yeast surface expression in data set [2] is 1.

For the variant chain 1 T28W, in data set [1], the Kd was found to be 0.0038 µM. In data set [2], the yeast surface expression came to 0.893.

For chain 1 T28Y, in data set [1], the Kd is 0.00325 µM. The yeast surface expression in data set [2] came out at 0.919.

On to chain 1 W33H M34V V37L, for which the Kd in data set [1] is at least 10 µM. Further, in data set [2], the yeast surface expression amounted to 0.434.

Take chain 1 W108D G109I: the Kd in data set [1] was at least 10 µM. The yeast surface expression in data set [2] stood at 0.209.

With chain 1 W108D G109Y, the Kd in data set [1] is at least 10 µM. Also, the yeast surface expression in data set [2] was found to be 0.271.

Take chain 1 W108A G109C: the Kd in data set [1] was at least 10 µM. In addition, the yeast surface expression in data set [2] came out at 0.197.

Consider chain 1 W108A G109H, for which, in data set [1], the Kd was at least 10 µM. Also, in data set [2], the yeast surface expression came out at 0.356.

With chain 1 T28Y D31V, the Kd in data set [1] is at least 10 µM. In addition, the yeast surface expression in data set [2] amounted to 0.509.

Take chain 1 T28Y D31Y: the Kd in data set [1] amounted to 0.00184 µM. Moreover, the yeast surface expression in data set [2] came out at 0.779.

For chain 1 W36S V37D, the Kd in data set [1] is at least 10 µM. Moreover, the yeast surface expression in data set [2] stood at 1.34.

As to chain 1 W36Y V37I, in data set [1], the Kd turned out to be 0.0205 µM. Besides, the yeast surface expression in data set [2] was determined as 0.75.

For chain 1 W33F N35Q, in data set [1], the Kd is at least 10 µM. The yeast surface expression in data set [2] stood at 0.614.

With chain 1 W33F N35F, in data set [1], the Kd was at least 10 µM. Besides, the yeast surface expression in data set [2] was found to be 0.3.

With chain 1 W33F N35T, the equilibrium dissociation constant (Kd) in data set [1] is at least 10 µM. In data set [2], the yeast surface expression was determined as 0.824.

Take chain 1 W33F W36C: in data set [1], the Kd was at least 10 µM. The yeast surface expression in data set [2] amounted to 0.455.

As to chain 1 W33F W36L, in data set [1], the Kd was at least 10 µM. The yeast surface expression in data set [2] stood at 0.594.

Take chain 1 W36L V37Q: the Kd in data set [1] was at least 10 µM. Also, in data set [2], the yeast surface expression amounted to 0.537.

Turning to chain 1 T28Y Y32K, the Kd in data set [1] was at least 10 µM. For the same variant, the yeast surface expression in data set [2] was determined as 0.818.

On to chain 1 W33M M34I, for which the Kd in data set [1] was at least 10 µM. Besides, the yeast surface expression in data set [2] was 0.708.

Regarding chain 1 W33M M34P, in data set [1], the Kd is at least 10 µM. Besides, the yeast surface expression in data set [2] came to 0.576.

As for chain 1 W33A V37W, in data set [1], the Kd is at least 10 µM. The yeast surface expression in data set [2] was 0.625.

On to chain 1 W33A V37N, for which the Kd in data set [1] is at least 10 µM. The yeast surface expression in data set [2] is 0.49.

On to chain 1 W33N W36R, for which, in data set [1], the Kd was at least 10 µM. Besides, the yeast surface expression in data set [2] turned out to be 0.764.

With chain 1 T28V N35H, the Kd in data set [1] was at least 10 µM. Also, the yeast surface expression in data set [2] stood at 0.671.

Consider chain 1 W33R V37W, for which the Kd in data set [1] was at least 10 µM. For the same variant, the yeast surface expression in data set [2] was determined as 0.543.

With chain 1 W33R V37D, the Kd in data set [1] stood at 0.205 µM. For the same variant, the yeast surface expression in data set [2] stood at 1.19.

chain 1 W33C V37W: the dissociation constant Kd in data set [1] is at least 10 µM. For the same variant, the yeast surface expression in data set [2] was determined as 0.503.

As to chain 1 W33R M34D, the Kd in data set [1] is at least 10 µM. Besides, the yeast surface expression in data set [2] worked out at 0.356.

Regarding chain 1 W33R M34I, the Kd in data set [1] is at least 10 µM. The yeast surface expression in data set [2] turned out to be 0.644.

On to chain 1 W36Q, for which the Kd in data set [1] was at least 10 µM. In addition, the yeast surface expression in data set [2] was 0.308.

As for chain 1 W36M, the Kd in data set [1] was determined as 0.0259 µM. In addition, in data set [2], the yeast surface expression was determined as 0.721.

In the case of chain 1 W36R, the equilibrium dissociation constant (Kd) in data set [1] amounted to 8.34 µM. Further, the yeast surface expression in data set [2] is 0.957.

Turning to chain 1 W36D, the Kd in data set [1] was at least 10 µM. Besides, in data set [2], the yeast surface expression amounted to 0.512.

For the variant chain 1 W36I, the Kd in data set [1] came out at 1.33 µM. Further, in data set [2], the yeast surface expression is 0.756.

For chain 1 W36C, the Kd in data set [1] was at least 10 µM. For the same variant, the yeast surface expression in data set [2] stood at 0.561.

Regarding chain 1 W36V, the Kd in data set [1] was at least 10 µM. The yeast surface expression in data set [2] was 0.715.

Regarding chain 1 W36P, the Kd in data set [1] is at least 10 µM. Further, the yeast surface expression in data set [2] was determined as 0.871.

With chain 1 W36S, the Kd in data set [1] was at least 10 µM. Further, the yeast surface expression in data set [2] turned out to be 0.813.

Consider chain 1 W36H, for which the dissociation constant Kd in data set [1] is at least 10 µM. In data set [2], the yeast surface expression stood at 0.522.

With chain 1 W36K, the Kd in data set [1] was at least 10 µM. In addition, the yeast surface expression in data set [2] was 0.794.

For chain 1 W36A, the Kd in data set [1] was at least 10 µM. Further, the yeast surface expression in data set [2] amounted to 0.44.

For the variant chain 1 W36G, the Kd in data set [1] is at least 10 µM. In addition, the yeast surface expression in data set [2] stood at 0.534.

chain 1 W36N: the Kd in data set [1] is at least 10 µM. For the same variant, the yeast surface expression in data set [2] was 0.978.

Consider chain 1 W36E, for which the Kd in data set [1] was at least 10 µM. Also, the yeast surface expression in data set [2] was 0.765.

Consider chain 1 W36L, for which, in data set [1], the Kd is at least 10 µM. For the same variant, in data set [2], the yeast surface expression came out at 0.686.

As to chain 1 W36F, in data set [1], the Kd stood at 0.0015 µM. In data set [2], the yeast surface expression was 0.954.

chain 1 W36T: the dissociation constant (Kd) in data set [1] was at least 10 µM. Besides, in data set [2], the yeast surface expression is 0.497.

With chain 1 W36Y, in data set [1], the Kd stood at 0.00532 µM. The yeast surface expression in data set [2] was determined as 0.923.
